Results on five substances are retold here after publication PMC7090010.

Conditions in all cases: scale: % of the maximum spliced product formation
Experiment [1] addresses split mCherry-split intein C-terminal chimeric protein, IMPDH-1 intein split at site S2.
The target of experiment [2] is split mCherry-split intein C-terminal chimeric protein, NrdJ-1 intein split at site S2.
Experiment [3] has as its target split mCherry-split intein C-terminal chimeric protein, SspGyrB intein split at site S2.
Experiment [4] deals with split mCherry-split intein C-terminal chimeric protein, gp41-1 intein split at site S2.
Experiment [5] deals with split mCherry-split intein C-terminal chimeric protein, gp41-8 intein split at site S2.

On to “split mCherry-split intein N-terminal chimeric protein, IMPDH-1 intein split at site S2 (domain or fragment)”, for which the in vitro trans-splicing of mixed lysates (room temperature, 100 mM Tris-HCl pH 9.0, 100 mM NaCl, 2 mM DTT): spliced mCherry by Western blot, share of the maximum spliced product within 1 h in experiment [1] was more than 75. Consider “split mCherry-split intein N-terminal chimeric protein, NrdJ-1 intein split at site S2 (domain or fragment)”, for which, in experiment [2], the in vitro trans-splicing of mixed lysates (room temperature, 100 mM Tris-HCl pH 9.0, 100 mM NaCl, 2 mM DTT): spliced mCherry by Western blot, share of the maximum spliced product within 1 h was more than 75. “split mCherry-split intein N-terminal chimeric protein, SspGyrB intein split at site S2 (domain or fragment)”: the in vitro trans-splicing of mixed lysates (room temperature, 100 mM Tris-HCl pH 9.0, 100 mM NaCl, 2 mM DTT): spliced mCherry by Western blot, share of the maximum spliced product within 1 h in experiment [3] is more than 75. In turn, “split mCherry-split intein N-terminal chimeric protein, gp41-1 intein split at site S2 (domain or fragment)” displayed an in vitro trans-splicing of mixed lysates (room temperature, 100 mM Tris-HCl pH 9.0, 100 mM NaCl, 2 mM DTT): spliced mCherry by Western blot, share of the maximum spliced product within 1 h in experiment [4] of more than 75.

In the case of “split mCherry-split intein N-terminal chimeric protein, gp41-8 intein split at site S2 (domain or fragment)”, the in vitro trans-splicing of mixed lysates (room temperature, 100 mM Tris-HCl pH 9.0, 100 mM NaCl, 2 mM DTT): spliced mCherry by Western blot, share of the maximum spliced product within 1 h in experiment [5] is more than 75.
